Measured values as given in IntAct's records for PubMed 26053850.

B1: ADP-ribosylation factor-binding protein GGA1 (Homo sapiens), Q9UJY5 (parent)
chain: MEPAMEPETLEARINRATNPLNKELDWASINGFCEQLNEDFEGPPLATRLLAHKIQSPQEWEAIQALTVLETCMKSCGKRFHDEVGKFRFLNELIKVVSPKYLGSRTSEKVKNKILELLYSWTVGLPEEVKIAEAYQMLKKQGIVKSDPKLPDDTTFPLPPPRPKNVIFEDEEKSKMLARLLKSSHPEDLRAANKLIKEMVQEDQKRMEKISKRVNAIEEVNNNVKLLTEMVMSHSQGGAAAGSSEDLMKELYQRCERMRPTLFRLASDTEDNDEALAEILQANDNLTQVINLYKQLVRGEEVNGDATAGSIPGSTSALLDLSGLDLPPAGTTYPAMPTRPGEQASPEQPSASVSLLDDELMSLGLSDPTPPSGPSLDGTGWNSFQSSDATEPPAPALAQAPSMESRPPAQTSLPASSGLDDLDLLGKTLLQQSLPPESQQVRWEKQQPTPRLTLRDLQNKSSSCSSPSSSATSLLHTVSPEPPRPPQQPVPTELSLASITVPLESIKPSNILPVTVYDQHGFRILFHFARDPLPGRSDVLVVVVSMLSTAPQPIRNIVFQSAVPKVMKVKLQPPSGTELPAFNPIVHPSAITQVLLLANPQKEKVRLRYKLTFTMGDQTYNEMGDVDQFPPPETWGSL

Variants of: B1
Settings: with bace1_human BACE1, P56817
bace1_human BACE1, P56817, sequence (P56817 whole entry): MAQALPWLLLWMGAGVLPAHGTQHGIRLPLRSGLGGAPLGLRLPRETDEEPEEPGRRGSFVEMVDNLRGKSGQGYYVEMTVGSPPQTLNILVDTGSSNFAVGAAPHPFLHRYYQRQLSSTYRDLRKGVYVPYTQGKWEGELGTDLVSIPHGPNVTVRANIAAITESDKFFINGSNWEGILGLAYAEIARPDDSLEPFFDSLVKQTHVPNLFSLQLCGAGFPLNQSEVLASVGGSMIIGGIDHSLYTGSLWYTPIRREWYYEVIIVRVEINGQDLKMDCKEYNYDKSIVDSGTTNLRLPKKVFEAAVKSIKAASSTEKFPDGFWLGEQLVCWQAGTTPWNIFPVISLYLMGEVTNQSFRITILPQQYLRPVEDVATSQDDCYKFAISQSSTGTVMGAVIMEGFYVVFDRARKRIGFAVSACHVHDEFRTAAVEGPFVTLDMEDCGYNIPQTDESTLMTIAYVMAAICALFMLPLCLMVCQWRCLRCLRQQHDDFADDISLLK

| Variant | effect of a mutation on the interaction |
| --- | --- |
| S355D | with no effect |
| S355A | with no effect |
